Source: PMC9352680, “A comprehensive thermodynamic model for RNA binding by the Saccharomyces cerevisiae Pumilio protein PUF4”
Positions count from the first letter of the chain named. Numbers in names are those of the source.

T1: PUF4 RNA-binding domain (Saccharomyces cerevisiae, UniProt P25339 537-888)
T1 sequence: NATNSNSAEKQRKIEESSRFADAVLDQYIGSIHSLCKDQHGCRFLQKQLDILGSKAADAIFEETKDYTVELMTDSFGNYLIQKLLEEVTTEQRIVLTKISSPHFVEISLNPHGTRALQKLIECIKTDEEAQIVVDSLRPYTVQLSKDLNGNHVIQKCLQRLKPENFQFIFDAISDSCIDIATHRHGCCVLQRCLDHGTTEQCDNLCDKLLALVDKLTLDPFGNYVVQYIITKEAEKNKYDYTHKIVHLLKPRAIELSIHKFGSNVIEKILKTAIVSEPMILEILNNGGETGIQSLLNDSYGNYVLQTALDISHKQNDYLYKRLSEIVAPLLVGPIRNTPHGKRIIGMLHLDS

B1: Id_ii_S2_P3E.2_K3.1_C3.2_[C-2A]_[T-1C]_H3.1_A3.1_F3.1_T3.2_[A10C] (ssRNA)
RNA: UUUGAUUAAUAUGAUAUCGUUCUUUCUACUGUAUAUAUCUUCUUUCUCGAUAUCAUAUUAAUCUUU
B2: Id_ii_S2_P3E.2_K3.1_C3.2_[T-1C]_H3.1_A3.1_F3.1_T3.2_[A10T] (ssRNA)
RNA: B1 RNA with A28C, C39U
B3: Id_ii_S2_P3E.2_K3.1_C3.2_[T-1C]_H3.1_A3.1_F3.1_T3.2_[T9A]_[A10G] (ssRNA)
RNA: B1 RNA with A28C, U38A, C39G
B4: Id_ii_S2_P3E.3_K3.2_C3.2_[C-2G]_[T-1C]_H3.2_A3.1_F3.1_T3.2_[A10T] (ssRNA)
RNA: B1 RNA with A28G, G31A, C39U
B5: Id_ii_S2_P3E.3_K3.2_C3.2_[C-2G]_[T-1C]_H3.2_A3.1_F3.1_T3.2_[T9C]_[A10C] (ssRNA)
RNA: B1 RNA with A28G, G31A, U38C
B6: Id_ii_S2_P3E.2_K3.1_C3.2_[T-1G]_H3.1_A3.1_F3.1_T3.2_[T9A]_[A10T] (ssRNA)
RNA: B1 RNA with A28C, C29G, U38A, C39U
B7: Id_ii_S2_P3E.2_K3.1_C3.2_[C-2A]_H3.1_A3.1_F3.1_T3.2 (ssRNA)
RNA: B1 RNA with C29U, C39A
B8: Id_ii_S2_P3E.2_K3.1_C3.2_[T-1A]_H3.1_A3.1_F3.1_T3.2_[T9G]_[A10T] (ssRNA)
RNA: B1 RNA with A28C, C29A, U38G, C39U
B9: Id_ii_S2_P3E.3_K3.2_C3.2_[C-2G]_[T-1C]_H3.2_A3.1_F3.1_T3.2_[T9A]_[A10C] (ssRNA)
RNA: B1 RNA with A28G, G31A, U38A
B10: Id_ii_S2_P3E.2_K3.1_C3.2_[T-1G]_H3.1_A3.1_F3.1_T3.2_[A10T] (ssRNA)
RNA: B1 RNA with A28C, C29G, C39U
B11: Id_ii_S2_P3E.2_K3.1_C3.2_H3.1_A3.1_F3.1_T3.2_[T9A]_[A10T] (ssRNA)
RNA: B1 RNA with A28C, C29U, U38A, C39U
B12: Id_ii_S2_P3E.2_K3.1_C3.2_H3.1_A3.1_F3.1_T3.2_[A10T] (ssRNA)
RNA: B1 RNA with A28C, C29U, C39U
B13: Id_ii_S2_P3E.2_K3.1_C3.2_[C-2A]_H3.1_A3.1_F3.1_T3.2_[T9C]_[A10G] (ssRNA)
RNA: B1 RNA with C29U, U38C, C39G
B14: Id_ii_S2_P3E.2_K3.1_C3.2_[T-1C]_H3.1_A3.1_F3.1_T3.2_[T9A]_[A10T] (ssRNA)
RNA: B1 RNA with A28C, U38A, C39U
B15: Id_ii_S2_P3E.2_K3.1_C3.2_[C-2A]_H3.1_A3.1_F3.1_T3.2_[A10T] (ssRNA)
RNA: B1 RNA with C29U, C39U
B16: If_S2_P3E.2_K3.1_C3.2_H3.1_A3.1_F3.1_T3.2 (ssRNA)
RNA: B1 RNA with A28C, C29U, C39A
B17: Id_ii_S2_P3E.2_K3.1_C3.2_H3.1_A3.1_F3.1_T3.2_[T9G]_[A10T] (ssRNA)
RNA: B1 RNA with A28C, C29U, U38G, C39U
B18: Id_ii_S2_P3E.3_K3.2_C3.2_[C-2G]_[T-1G]_H3.2_A3.1_F3.1_T3.2_[T9A]_[A10C] (ssRNA)
RNA: B1 RNA with A28G, C29G, G31A, U38A
B19: Id_ii_S2_P3E.3_K3.2_C3.2_[C-2G]_[T-1G]_H3.2_A3.1_F3.1_T3.2_[T9A] (ssRNA)
RNA: B1 RNA with A28G, C29G, G31A, U38A, C39A
B20: Id_ii_S2_P3E.3_K3.2_C3.2_[C-2G]_H3.2_A3.1_F3.1_T3.2_[T9C]_[A10G] (ssRNA)
RNA: B1 RNA with A28G, C29U, G31A, U38C, C39G
B21: Id_ii_S2_P3E.2_K3.1_C3.2_[T-1C]_H3.1_A3.1_F3.1_T3.2_[A10C] (ssRNA)
RNA: B1 RNA with A28C
B22: Id_ii_S2_P3E.2_K3.1_C3.2_[T-1C]_H3.1_A3.1_F3.1_T3.2_[T9A]_[A10C] (ssRNA)
RNA: B1 RNA with A28C, U38A
B23: Id_ii_S2_P3E.2_K3.1_C3.2_[C-2A]_[T-1A]_H3.1_A3.1_F3.1_T3.2_[A10G] (ssRNA)
RNA: B1 RNA with C29A, C39G
B24: Id_ii_S2_P3E.2_K3.1_C3.2_H3.1_A3.1_F3.1_T3.2_[A10G] (ssRNA)
RNA: B1 RNA with A28C, C29U, C39G
B25: Id_ii_S2_P3E.2_K3.1_C3.2_[T-1A]_H3.1_A3.1_F3.1_T3.2_[T9A]_[A10T] (ssRNA)
RNA: B1 RNA with A28C, C29A, U38A, C39U
B26: Id_ii_S2_P3E.3_K3.2_C3.2_[C-2G]_H3.2_A3.1_F3.1_T3.2_[A10G] (ssRNA)
RNA: B1 RNA with A28G, C29U, G31A, C39G
B27: Id_ii_S2_P3E.2_K3.1_C3.2_[T-1A]_H3.1_A3.1_F3.1_T3.2_[A10T] (ssRNA)
RNA: B1 RNA with A28C, C29A, C39U
B28: Id_ii_S2_P3E.2_K3.1_C3.2_[T-1G]_H3.1_A3.1_F3.1_T3.2_[T9G]_[A10G] (ssRNA)
RNA: B1 RNA with A28C, C29G, U38G, C39G
B29: Id_ii_S2_P3E.2_K3.1_C3.2_[T-1A]_H3.1_A3.1_F3.1_T3.2_[A10C] (ssRNA)
RNA: B1 RNA with A28C, C29A
B30: Id_ii_S2_P3E.2_K3.1_C3.2_[T-1G]_H3.1_A3.1_F3.1_T3.2_[T9A]_[A10G] (ssRNA)
RNA: B1 RNA with A28C, C29G, U38A, C39G
B31: Id_ii_S2_P3E.3_K3.2_C3.2_[C-2G]_H3.2_A3.1_F3.1_T3.2_[T9A]_[A10T] (ssRNA)
RNA: B1 RNA with A28G, C29U, G31A, U38A, C39U
B32: Id_ii_S2_P3E.2_K3.1_C3.2_[C-2A]_[T-1A]_H3.1_A3.1_F3.1_T3.2_[A10T] (ssRNA)
RNA: B1 RNA with C29A, C39U
B33: Id_ii_S2_P3E.2_K3.1_C3.2_H3.1_A3.1_F3.1_T3.2_[T9G]_[A10C] (ssRNA)
RNA: B1 RNA with A28C, C29U, U38G
B34: Id_ii_S2_P3E.2_K3.1_C3.2_[C-2A]_[T-1A]_H3.1_A3.1_F3.1_T3.2_[T9G]_[A10C] (ssRNA)
RNA: B1 RNA with C29A, U38G
B35: Id_ii_S2_P3E.2_K3.1_C3.2_[T-1A]_H3.1_A3.1_F3.1_T3.2_[T9A]_[A10G] (ssRNA)
RNA: B1 RNA with A28C, C29A, U38A, C39G
B36: Id_ii_S2_P3E.3_K3.2_C3.2_[C-2G]_H3.2_A3.1_F3.1_T3.2_[T9C]_[A10C] (ssRNA)
RNA: B1 RNA with A28G, C29U, G31A, U38C
B37: Id_ii_S2_P3E.2_K3.1_C3.2_[C-2A]_H3.1_A3.1_F3.1_T3.2_[T9C]_[A10C] (ssRNA)
RNA: B1 RNA with C29U, U38C
B38: Id_ii_S2_P3E.2_K3.1_C3.2_[C-2A]_H3.1_A3.1_F3.1_T3.2_[T9C]_[A10T] (ssRNA)
RNA: B1 RNA with C29U, U38C, C39U
B39: Id_ii_S2_P3E.3_K3.2_C3.2_[C-2G]_[T-1G]_H3.2_A3.1_F3.1_T3.2_[A10T] (ssRNA)
RNA: B1 RNA with A28G, C29G, G31A, C39U
B40: Id_ii_S2_P3E.2_K3.1_C3.2_[C-2A]_[T-1A]_H3.1_A3.1_F3.1_T3.2_[T9A]_[A10T] (ssRNA)
RNA: B1 RNA with C29A, U38A, C39U
B41: Id_ii_S2_P3E.2_K3.1_C3.2_[T-1A]_H3.1_A3.1_F3.1_T3.2_[T9C]_[A10T] (ssRNA)
RNA: B1 RNA with A28C, C29A, U38C, C39U
B42: Id_ii_S2_P3E.3_K3.2_C3.2_[C-2G]_H3.2_A3.1_F3.1_T3.2_[A10C] (ssRNA)
RNA: B1 RNA with A28G, C29U, G31A
B43: Id_ii_S2_P3E.2_K3.1_C3.2_[T-1C]_H3.1_A3.1_F3.1_T3.2_[T9G]_[A10T] (ssRNA)
RNA: B1 RNA with A28C, U38G, C39U
B44: Id_ii_S2_P3E.2_K3.1_C3.2_H3.1_A3.1_F3.1_T3.2_[T9A] (ssRNA)
RNA: B1 RNA with A28C, C29U, U38A, C39A
B45: Id_ii_S2_P3E.2_K3.1_C3.2_[T-1C]_H3.1_A3.1_F3.1_T3.2_[T9C]_[A10G] (ssRNA)
RNA: B1 RNA with A28C, U38C, C39G
B46: Id_ii_S2_P3E.2_K3.1_C3.2_[T-1A]_H3.1_A3.1_F3.1_T3.2_[T9A] (ssRNA)
RNA: B1 RNA with A28C, C29A, U38A, C39A
B47: Id_ii_S2_P3E.2_K3.1_C3.2_H3.1_A3.1_F3.1_T3.2_[A10C] (ssRNA)
RNA: B1 RNA with A28C, C29U
B48: Id_ii_S2_P3E.2_K3.1_C3.2_[T-1A]_H3.1_A3.1_F3.1_T3.2 (ssRNA)
RNA: B1 RNA with A28C, C29A, C39A

biological target: T1, PUF4 RNA-binding domain; assay: Mg; RNA-MaP; 20 mM Na-HEPES pH 7.4, 30 mM KOAc, 0.75 mM MgCl2, 0.1% Tween-20, 5% glycerol, 0.1 mg/mL BSA, 2 mM DTT; 25 C; 0.0125-409.6 nM protein; settings: tags: N-His6-TEV cleaved; C-SNAP kept, Cy3B-labelled; label: tethered on chip by stalled RNA polymerase

Binder | Kd [nM]
UCUCUUUAUAUUAAUAUCUCUU (ssRNA) [Ib_S1_P5E.1_K5.1_C5.1_H5.1_[G2A]_A5.1_F5.1_[T8A]_T5.1] | 698
B1 | 1.69
B2 | 1.22
B3 | 4.04
B4 | 86.4
B5 | 329
B6 | 1.85
B7 | 5.13
B8 | 3.93
B9 | 592
B10 | 1.39
B11 | 1.9
B12 | 1.32
B13 | 19
B14 | 1.48
B15 | 3.05
B16 | 1.16
B17 | 4.32
B18 | 1450
B19 | 872
B20 | 291
B21 | 0.998
B22 | 2.58
B23 | 7.2
B24 | 2.02
B25 | 2.96
B26 | 22.9

Binder | Kd [nM]
B27 | 1.78
B28 | 10.2
B29 | 2.36
B30 | 7.62
B31 | 36.2
B32 | 6.37
B33 | 2.46
B34 | 10
B35 | 15.2
B36 | 31.2
B37 | 6.81
B38 | 8.7
B39 | 137
B40 | 10.1
B41 | 5.2
B42 | 15.1
B43 | 2.32
B44 | 2.73
B45 | 4.24
B46 | 3.89
B47 | 1.61
B48 | 1.35
UCUCUUUGUUUUAGUAUCUCUU (ssRNA) [Ib_S1_P5E.1_K5.1_C5.1_H5.1_[A4T]_A5.1_F5.1_[T8G]_T5.1] | 70.8
UCUCUUUGUCUUACUAUCUCUU (ssRNA) [Ib_S1_P5E.1_K5.1_C5.1_H5.1_[A4C]_A5.1_F5.1_[T8C]_T5.1] | 86.7
UCUCUUUGUGUUACUAUCUCUU (ssRNA) [Ib_S1_P5E.1_K5.1_C5.1_H5.1_[A4G]_A5.1_F5.1_[T8C]_T5.1] | 51.5
UCUCUUUGCAUUACUAUCUCUU (ssRNA) [Ib_S1_P5E.1_K5.1_C5.1_H5.1_[T3C]_A5.1_F5.1_[T8C]_T5.1] | 1370
